In article PMC3276249 (Molecular Microbiology, 2012):

Legend:
SEC = target: the molecule itself; assay: SEC
cross-linking = target: the molecule itself; assay: cross-linking

B1: Bcam0581 of Burkholderia cenocepacia J2315, hexahistidine-tagged (enzyme)
chain: MQLQSHPACRPFYEAGELSQLTAFYEEGRNVMWMMLRSEPRPCFNQQLVTDIIHLARVARDSGLTFDFWVTGSLVPELFNVGGDLSFFVDAIRSGRRDQLMAYARSCIDGVYEIYTGFGTGAISIAMVEGSALGGGFEAALAHHYVLAQKGVKLGFPEIAFNLFPGMGGYSLVARKANRGLAESLIATGEAHAAEWYEDCGLIDETFDAGDAYLATRTFIDVTKPKLNGIRAMLRARERVFQLSRSELMDITEAWVHAAFTIEPKDLAYMERLVMLQNRRVSKLRTV
- stoichiometry N (SEC): 3
- stoichiometry N (cross-linking): ~3
